# In patent publication US20250182853A1 (TOHOKU UNIVERSITY, published 2025):
# Target: T1, Galectin-3 (UniProt P17931 1-250, limits assumed)
# T1 construct: Immobilized on magnetic particles for panning and on ELISA wells via NeutrAvidin; also called Gal-3; target Galectin-3
# Test: ELISA, eight 2-fold dilutions starting from 1.5 uM
# T1 sequence (P17931 whole entry): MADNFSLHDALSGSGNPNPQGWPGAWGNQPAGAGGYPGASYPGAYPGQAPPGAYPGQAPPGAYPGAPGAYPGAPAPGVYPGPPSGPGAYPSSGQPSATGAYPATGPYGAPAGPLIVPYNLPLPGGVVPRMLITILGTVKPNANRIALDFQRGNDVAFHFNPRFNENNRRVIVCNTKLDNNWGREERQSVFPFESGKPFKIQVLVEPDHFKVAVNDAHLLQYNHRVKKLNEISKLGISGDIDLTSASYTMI
row,Binder,EC50 [nM]
1,"1E2 mutant (2u2f mutant from Cluster 1) (designed binder, Purified monomer from a pET22b vector in E. coli (IMAC, SEC); The tag is not described) AHKLFIGGLPVDYNDDQVKELLTSFGPLKAFNLVKDSATGLSKGYAFAEYVDINVTDQAIAGLNGNVCHLHTLLVQRASVGAKNADYKDDDDKLEHHHHHH",92.5
2,"1H2 mutant (2u2f mutant from Cluster 1) (designed binder, Purified monomer from a pET22b vector in E. coli (IMAC, SEC); The tag is not described) AHKLFIGGLPVDYNDDQVKELLTSFGPLKAFNLVKDSATGLSKGYAFAEYVDINVTDQAIAGLNGSGSRIRALLVQRASVGAKNADYKDDDDKLEHHHHHH",79.9

# Now from value to binder:
row,EC50 [nM],Binder
1,201,"4H5 mutant (2u2f mutant from Cluster 4) (designed binder, Purified monomer from a pET22b vector in E. coli (IMAC, SEC); The tag is not described) AHKLFIGGLPDYYGDDQVKELLTSFGPLKAFNLVKDSATGLSKGYAFAEYVDINVTDQAIAGLNGRFYGTATLLVQRASVGAKNADYKDDDDKLEHHHHHH"
2,277,"3B5 mutant (2u2f mutant from Cluster 3) (designed binder, Purified monomer from a pET22b vector in E. coli (IMAC, SEC); The tag is not described) AHKLFIGGLPADGDDDQVKELLTSFGPLKAFNLVKDSATGLSKGYAFAEYVDINVTDQAIAGLNGFATSRFSLLVQRASVGAKNADYKDDDDKLEHHHHHH"
